The target of this assay is HSV-2 glycoprotein E (gE2) as expressed by wild-type HSV-2 strain 2.12 (infected Cos cells; virion envelope) (Herpes Simplex Virus-2) (UniProt P89475). Nature of the assay: rosetting of IgG-coated sheep red blood cells on Cos cells infected with HSV-2 at MOI 2, 12 h; uninfected cells and gE2-deletion virus formed none.
Sequence of UniProt P89475 (P89475 21-545 limits assumed): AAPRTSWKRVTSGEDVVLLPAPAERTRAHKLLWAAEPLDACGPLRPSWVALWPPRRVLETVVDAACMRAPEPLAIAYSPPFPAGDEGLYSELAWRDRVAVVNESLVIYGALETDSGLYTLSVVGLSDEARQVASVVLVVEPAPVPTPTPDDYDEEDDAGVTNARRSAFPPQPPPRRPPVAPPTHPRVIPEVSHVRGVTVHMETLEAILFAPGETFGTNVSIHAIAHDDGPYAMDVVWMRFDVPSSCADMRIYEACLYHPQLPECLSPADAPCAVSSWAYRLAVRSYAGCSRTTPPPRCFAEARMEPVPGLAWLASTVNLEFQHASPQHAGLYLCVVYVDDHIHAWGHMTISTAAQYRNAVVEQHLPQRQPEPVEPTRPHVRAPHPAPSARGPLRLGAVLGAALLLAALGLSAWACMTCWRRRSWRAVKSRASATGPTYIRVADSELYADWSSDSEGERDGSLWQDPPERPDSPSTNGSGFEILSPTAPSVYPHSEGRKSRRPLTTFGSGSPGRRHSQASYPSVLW

On to “rabbit anti-sheep IgG on sheep red blood cells (IgG-coated red blood cells) (antibody)”, for which the percent of infected cells forming rosettes was found to be 36%.
